Key:
[1] = target: 人CD40 (HEK293A细胞表达) (human) (UniProt P25942); assay: cell-based or functional assay
人CD40(ECD)-his蛋白 (human) = 人CD40(ECD)-his蛋白 (human) (UniProt P25942); assay: SPR Biacore 8K; human CD40(ECD)-his coupled to CM5, antibody as analyte, 1:1 model
人CD40(ECD)-his蛋白 (human), sequence (P25942 21-193): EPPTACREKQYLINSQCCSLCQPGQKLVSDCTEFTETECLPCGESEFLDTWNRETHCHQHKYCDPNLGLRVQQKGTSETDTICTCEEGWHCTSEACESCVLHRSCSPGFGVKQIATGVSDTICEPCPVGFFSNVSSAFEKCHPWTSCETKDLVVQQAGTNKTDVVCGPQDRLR

人CD40 (HEK293A细胞表达) (human), sequence (P25942 21-277 limits assumed): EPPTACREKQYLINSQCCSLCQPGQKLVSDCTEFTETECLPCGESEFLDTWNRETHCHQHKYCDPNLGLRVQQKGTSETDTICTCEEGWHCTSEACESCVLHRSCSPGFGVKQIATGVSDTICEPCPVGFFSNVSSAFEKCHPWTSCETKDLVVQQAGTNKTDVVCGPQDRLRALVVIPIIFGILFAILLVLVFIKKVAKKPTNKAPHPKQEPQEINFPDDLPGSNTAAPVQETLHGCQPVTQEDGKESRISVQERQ

HEK-Blue EC50 [1] | Kd (人CD40(ECD)-his蛋白 (human)) | Substance
1.03 µg/mL | 29 nM | ADC1013 (antibody)
0.0233 µg/mL | 1.71 nM | RO7009789 (antibody)
